From patent US10702592B2, “Peptides and combination of peptides for use in immunotherapy against NHL and other cancers” (Immatics Biotechnologies GmbH, priority 2016, dated 2020)

biological target: HLA-A*02:01 (Homo sapiens, UniProt P04439, D140Y/D185E/D98H/E176V/E277Q/G131W/G231S/I119V/I121R/I166T/I218V/L300P/L318F/N151K/N90K/P208A/P217A/Q86G/Q94H/R138H/R169H/T345S); experiment: MHC binding assay (UV-ligand exchange, beta2m ELISA); conditions: binding to HLA-A*02:01, UV-ligand exchange
Source text: Candidate peptides for T cell based therapies according to the present invention were further tested for their MHC binding capacity (affinity). The individual peptide-MHC complexes were produced by UV-ligand exchange, where a UV-sensitive peptide is cleaved upon UV-irradiation, and exchanged with the peptide of interest as analyzed. Only peptide candidates that can effectively bind and stabilize the peptide-receptive MHC molecules prevent dissociation of the MHC complexes. To determine the yield of the exchange reaction, an ELISA was performed based on the detection of the light chain (β2m) of stabilized MHC complexes. The assay was performed as generally described in Rodenko et al. (Rodenko et al., 2006).
96 well MAXISorp plates (NUNC) were coated over night with 2 ug/ml streptavidin in PBS at room temperature, washed 4× and blocked for 1 h at 37° C. in 2% BSA containing blocking buffer. Refolded HLA-A*02:01/MLA-001 monomers served as standards, covering the range of 15-500 ng/ml. Peptide-MHC monomers of the UV-exchange reaction were diluted 100 fold in blocking buffer. Samples were incubated for 1 h at 37° C., washed four times, incubated with 2 ug/ml HRP conjugated anti-β2m for 1 h at 37° C., washed again and detected with TMB solution that is stopped with […]. Absorption was measured at 450 nm. Candidate peptides that show a high exchange yield (preferably higher than 50%, most preferred higher than 75%) are generally preferred for a generation and production of antibodies or fragments thereof, and/or T cell receptors or fragments thereof, as they show sufficient avidity to the MHC molecules and prevent dissociation of the MHC complexes.

| Substance | Peptide exchange (MHC class I binding score, peptide exchange yield) |
| --- | --- |
| 136 (FIFGIVHLL; listed as Homo sapiens) [compound 136] | “+++” (≥50 = +++) |
| 137 (FIQQERFFL; listed as Homo sapiens) [compound 137] | “+++” (≥50 = +++) |
| 138 (NLINNIFEL; listed as Homo sapiens) [compound 138] | “++++” (≥75% = ++++) |
| 139 (FLASPLVAI; listed as Homo sapiens) [compound 139] | “++++” (≥75% = ++++) |
| 140 (FLFEDFVEV; listed as Homo sapiens) [compound 140] | “+++” (≥50 = +++) |
| 141 (FLGELTLQL; listed as Homo sapiens) [compound 141] | “+++” (≥50 = +++) |
| 142 (FLYEDSKSVRL; listed as Homo sapiens) [compound 142] | “+++” (≥50 = +++) |
| 143 (TLHAVDVTL; listed as Homo sapiens) [compound 143] | “+++” (≥50 = +++) |
| 144 (GLITQVDKL; listed as Homo sapiens) [compound 144] | “+++” (≥50 = +++) |
| 145 (GLLHEVVSL; listed as Homo sapiens) [compound 145] | “+++” (≥50 = +++) |
| 146 (GLLQQPPAL; listed as Homo sapiens) [compound 146] | “+++” (≥50 = +++) |
| 147 (GLSEYQRNFL; listed as Homo sapiens) [compound 147] | “+++” (≥50 = +++) |
| 148 (ICAGHVPGV; listed as Homo sapiens) [compound 148] | “+++” (≥50 = +++) |
| 149 (ILNPVTTKL; listed as Homo sapiens) [compound 149] | “+++” (≥50 = +++) |
| 150 (ILSEKEYKL; listed as Homo sapiens) [compound 150] | “+++” (≥50 = +++) |
| 151 (ILVKQSPML; listed as Homo sapiens) [compound 151] | “+++” (≥50 = +++) |
| 152 (KIMYTLVSV; listed as Homo sapiens) [compound 152] | “++” (≥20% = ++) |
| 153 (KLLKGIYAI; listed as Homo sapiens) [compound 153] | “+++” (≥50 = +++) |
| 154 (KLMNIQQQL; listed as Homo sapiens) [compound 154] | “+++” (≥50 = +++) |
| 155 (KLMTSLVKV; listed as Homo sapiens) [compound 155] | “+++” (≥50 = +++) |
| 156 (KMLEDDLKL; listed as Homo sapiens) [compound 156] | “+++” (≥50 = +++) |

| Substance | Peptide exchange (MHC class I binding score, peptide exchange yield) |
| --- | --- |
| 157 (KVLEFLAKV; listed as Homo sapiens) [compound 157] | “+++” (≥50 = +++) |
| 158 (KVQDVLHQV; listed as Homo sapiens) [compound 158] | “+++” (≥50 = +++) |
| 159 (LLLSDSGFYL; listed as Homo sapiens) [compound 159] | “+++” (≥50 = +++) |
| 160 (LLPPPSPAA; listed as Homo sapiens) [compound 160] | “+++” (≥50 = +++) |
| 161 (NLMLELETV; listed as Homo sapiens) [compound 161] | “+++” (≥50 = +++) |
| 162 (RLADLKVSI; listed as Homo sapiens) [compound 162] | “++++” (≥75% = ++++) |
| 163 (SIFDAVLKGV; listed as Homo sapiens) [compound 163] | “++++” (≥75% = ++++) |
| 164 (SLFDGAVISTV; listed as Homo sapiens) [compound 164] | “+++” (≥50 = +++) |
| 165 (KLLEEIEFL; listed as Homo sapiens) [compound 165] | “+++” (≥50 = +++) |
| 167 (SLFSITKSV; listed as Homo sapiens) [compound 167] | “+++” (≥50 = +++) |
| 168 (SLLSPLLSV; listed as Homo sapiens) [compound 168] | “+++” (≥50 = +++) |
| 169 (SSLEENLLHQV; listed as Homo sapiens) [compound 169] | “+++” (≥50 = +++) |
| 171 (TLLDVISAL; listed as Homo sapiens) [compound 171] | “++++” (≥75% = ++++) |
| 172 (TLQDSLEFI; listed as Homo sapiens) [compound 172] | “++++” (≥75% = ++++) |
| 173 (VILDSVASV; listed as Homo sapiens) [compound 173] | “++++” (≥75% = ++++) |
| 174 (VLVEITDVDFAA; listed as Homo sapiens) [compound 174] | “++++” (≥75% = ++++) |
| 175 (VMESILLRL; listed as Homo sapiens) [compound 175] | “+++” (≥50 = +++) |
| 176 (YLHIYESQL; listed as Homo sapiens) [compound 176] | “+++” (≥50 = +++) |
| 177 (YLYEAEEATTL; listed as Homo sapiens) [compound 177] | “+++” (≥50 = +++) |
| 178 (YVLQGEFFL; listed as Homo sapiens) [compound 178] | “+++” (≥50 = +++) |
| 179 (FVDTNLYFL; listed as Homo sapiens) [compound 179] | “+++” (≥50 = +++) |

| Substance | Peptide exchange (MHC class I binding score, peptide exchange yield) |
| --- | --- |
| 180 (GILQLVESV; listed as Homo sapiens) [compound 180] | “+++” (≥50 = +++) |
| 181 (LLFDQNDKV; listed as Homo sapiens) [compound 181] | “+++” (≥50 = +++) |
| 182 (LLPPPPPVA; listed as Homo sapiens) [compound 182] | “++++” (≥75% = ++++) |
| 183 (VLFETVLTI; listed as Homo sapiens) [compound 183] | “+++” (≥50 = +++) |
| 184 (AVLGTSWQL; listed as Homo sapiens) [compound 184] | “+++” (≥50 = +++) |
| 185 (FIAQLNNVEL; listed as Homo sapiens) [compound 185] | “+” (≥10% = +) |
| 186 (FLDVSRDFV; listed as Homo sapiens) [compound 186] | “+++” (≥50 = +++) |
| 187 (FLNSFVFKM; listed as Homo sapiens) [compound 187] | “++” (≥20% = ++) |
| 188 (GLEDEMYEV; listed as Homo sapiens) [compound 188] | “++” (≥20% = ++) |
| 189 (SLSHLVPAL; listed as Homo sapiens) [compound 189] | “+++” (≥50 = +++) |
| 190 (GLIELVDQL; listed as Homo sapiens) [compound 190] | “+++” (≥50 = +++) |
| 191 (GLSDISAQV; listed as Homo sapiens) [compound 191] | “+++” (≥50 = +++) |
| 192 (GMAAEVPKV; listed as Homo sapiens) [compound 192] | “++” (≥20% = ++) |
| 193 (SLADSMPSL; listed as Homo sapiens) [compound 193] | “++” (≥20% = ++) |
| 194 (SLAPFDREPFTL; listed as Homo sapiens) [compound 194] | “++” (≥20% = ++) |
| 195 (ALIPDLNQI; listed as Homo sapiens) [compound 195] | “+++” (≥50 = +++) |
| 197 (YLLTDNVVKL; listed as Homo sapiens) [compound 197] | “++” (≥20% = ++) |
| 198 (GLLSAVSSV; listed as Homo sapiens) [compound 198] | “+++” (≥50 = +++) |
| 199 (SLNSTTWKV; listed as Homo sapiens) [compound 199] | “+++” (≥50 = +++) |
